Measurements as given in the DeepSol protein solubility set.

Experiment: soluble on expression in E. coli; label from the status in PepcDB or PDB records

Sequence	soluble on expression in E. coli
MAHHHHHHMSKKRKSYENDEDVYDNKRNKKNVASSIDSYGRKVWDKEYYQKKVDEKVENDEDELILKLLPDLKKKSKLEPPPPSERKLLEERKENLLLEKNLGKVQILTQKTPKNEQGGYYCKICDCVLKDSQTYLDHINGKNHNRMLGYSMKVKKVTLDDVKKRLSLLKDKKQNKTEDVEKDPYEDAKKNLKDMQEDEERRIQKRKEKKMLKKLEKEKKKNENENENNDEESDNMNMMFKEMGLPTSFV	soluble
MRRKIMMATLIVIAVNFIWSGQPVKACTRAVYIGPDNMVITGRTMDWKEDIQSNLYLFPRGIKRAGYNKGNTVEWISKYGSIVATGYDIGTCDGMNEKGLVASLLFLPESIYVRPNDTRPVMGISIWTQYVLDNFATVSEAVEELKKQTFRIDAPDMPNGSASTLHMAITDETGNSAVLEYIDGNLIIHEGKEYQVMTNSPRYDLQLAVNDYWKEVGGLNMLPGTNRSSDRFVRASFYIHAIPQTSDAKIAVPSVLSVMRNVSVPFGITTLDKPYISSTRWRSVSDQKNRVYYFESTLTPNLFWIDLHKVDFSPNASIKKLSLTHGEVYAGDVVKDFKDSRSFTFMFELPK	not soluble
MRVIEVKNLTFSYDGKHNVLEDVSFYVEKGDFLGIVGPNGAGKSTLLKLILGFLKPKSGEIYLFGKKIEEFKDWKRVGYVPQRLSVEHAFPGTVKELLSSVCEDKKEIDYLVEFLKLKNIVNKQFTKLSGGQQQRVLLAMALSYNPELILLDEPTVGLDVHAINHFMSILLDLNMNHKKSIVMISHDIGTLLKHASKILCLNKKVCYFGEPEGAIEYIEEAFGLRGFLHGVS	soluble
GFIDTHLHVESSLVTPFEFDRCVTPRGITTAICDPHEIANVCGLEGIRYFLEASAHLVMDLRVQLSSCVPSTHMETAGAALEAKDLAPLMDHPRVIGLAEFMNFPGVLMKDPGCMAKLEAFRGRHIDGHAPLLRGKDLNGYIAAGIRTEHEATTAEEALEKLRKGMRVLIREGSVSKDLHALVSILTERHAPYLCLCTDDRNPLDIAEHGHIDHMIRTAIRLGAPPLAVYRAASLSAADAFGLKDRGLIAPGRRADIAVLD	not soluble
MEDDHSKEMDRLRSQAAKVQSEKETFDRKRRETLEKHKKELDELEKKNKKEEDDLREQNMNLWNKNLDQQIALGNELNNKYTEISNQNSRLQIKIGQEEDIRVFKIKLLDVSKVWTDVKVNYQDYLRNTLDEHSNSNKSDVLKEIDTLIYNKEKLNEVLITAKKLLGKCQKFTTSDSFKVINDSLTELMRFKFEDDILIELKTIIKKNGSAEQSFLTKMDETIDKYNEMVNELPGLQLKSVEPIHQAAIQ	soluble
MITLYGFGTGFGLPEISPFVTKTEVQLKMAGLPYRKERAMPPASPKGQLPFIDDGGEAVADSTFIRAHIERRYGFDFDAGLSLQERAQAWAFERMIEHHVYWALVGARWVDPINFAKGPSHFFDGAPEHNREKLREDAQFRVAENYLLSGLGRHAPDDDVDLAVRSLFALSVQLGDKAYLMGNKPCGVDATAFGALAGILTPFFESGLRQRAEGFPNLTAYVDRMMDNYYPEFAWTPLRQAALEHHHHHH	not soluble
MHIIDSHCHLNFEGLKERLPEVLSNMEANGVGQALAISVSRESFSEVFAVAEAHEHIYCTIGVHPDSREAEEFSIAEMVEAAAHPKVVGIGETGLDYYWCKGDLSWQHKRFADHIEAANQTGLPVIVHTRDAAADTLAILKECKTNSGVIHCFSEDTAFARAAMDLGLYISFSGIVTFKNAPLVQEAAKYVPDDRILVETDAPFLAPVPKRGRQNEPAFVRHTAEHIAKLRNQTLEQVAAYTTENFYRLFKKVPDMRAVLEHHHHHH	not soluble
VSAPTKPHSPTFKPEPHSAANEPKHPAARPKHVALQQLTGAQAVIRSLEELGVDVIFGIPGGAVLPVYDPLFDSKKLRHVLVRHEQGAGHAASGYAHVTGRVGVCMATSGPGATNLVTPLADAQMDSIPVVAITGQVGRGLIGTDAFQEADISGITMPITKHNFLVRSGDDIPRVLAEAFHIAASGRPGAVLVDIPKDVLQGQCTFSWPPRMELPGYKPNTKPHSRQVREAAKLIAAARKPVLYVGGGVIRGEATEQLRELAELTGIPVVTTLMARGAFPDSHRQNLGMPGMHGTVAAVAALQRSDLLIALGTRFDDRVTGKLDSFAPEAKVIHADIDPAEIGKNRHADVPIVGDVKAVITELIAMLRHHHIPGTIEMADWWAYLNGVRKTYPLSYGPQSDGSLSPEYVIEKLGEIAGPDAVFVAGVGQHQMWAAQFIRYEKPRSWLNSGGLGTMGFAIPAAMGAKIALPGTEVWAIDGDGCFQMTNQELATCAVEGIPVKVALINNGNLGMVRQWQSLFYAERYSQTDLATHSHRIPDFVKLAEALGCVGLRCEREEDVVDVINQARAINDCPVVIDFIVGADAQVWPMVAAGTSNDEIQAARGIRPLFDDITEGHA	not soluble
MSAEFERLLAQFERFQSKIKKVDDQLANVERMQSEIAELEATASNADRSITIVAGPGGAIKDIQLTDKALSQQPQALSAALMSTIQEAVAEAARKQAAIVDDHMGGQLNVTDQVLETQAQLFGTSPQELRERMEQERPIRQTPLRPEEEYHEDYSHQDFLGSDQEQQSPPPPPAPSGGSAGDEFLQNLFNNDDHR	not soluble
MEKSLVDTVYALKDEVQELRQDNKKMKKSLEEEQRARKDLEKLVRKVLKNMNDPAWDETNL	soluble
MGSSHHHHHHSSGLVPRGSHMTATLGINGFGRIGRLVLRACMERNDITVVAINDPFMDVEYMAYLLKYDSVHGNFNGTVEVSGKDLCINGKVVKVFQAKDPAEIPWGASGAQIVCESTGVFTTEEKASLHLKGGAKKVIISAPPKDNVPMYVMGVNNTEYDPSKFNVISNASSTTNCLAPLAKIINDKFGIVEGLMTTVHSLTANQLTVDGPSKGGKDWRAGRCAGNNIIPASTGAAKAVGKVIPALNGKLTGMAIRVPTPDVSVVDLTCKLAKPASIEEIYQAVKEASNGPMKGIMGYTSDDVVSTDFIGCKYSSILDKNACIALNDSFVKLISWYDNESGYSNRLVDLAVYVASRGL	soluble
MGSDKIHHHHHHYGAQAYGMGGGGGGYNRPMNSYGNGYNNGGGFNNYGNGGGFGGNNYNNGPPPFDGGYNRPYGGGGGGGYGRPQGYVPPPPPPPTQPEPEPEPRPEPQPEPQPEPQPEPQPEPQPEPHPEPAPEPIVKPYNSYAQPHNSYVRYGGK	not soluble
MQSATDVAEYCKYDGFDGLKRAISLSDEEILNELDIAHLRGRGGAAYPLGKKWRHLYHAKGTTKYIVCNADEGEPGTFKDKVLLSEDPLSVIEGMIIAGYLFSAKAGYIYMRGEYRRIQKTFQEALDNARQAGFLGENILGIEGFNYDITIISGAGAYICGENSALLNSIEGKTGRPRVKPPHLADVGLYLQPTLVNNVESFASVPVILREGGQAFLEMGTADGGGTKLICLSGHIKNRGLYEVNLGTPLEEIIYGEQYGGGSATGRALKFIHFGGQSGPIGAVATLRDCLYSYEDLWAHDLSVGSGAIVVMDDSVNVVDYLVHVAAFFAHESCGKCTPCRLGTTRILELLSKFNRNEATASDLPRLEKMLTHVTRLSACGLGQSVANPMKSALALFPEEFETTAETEIYATSKGGWLEHHHHHH	not soluble
SYTEVRELVNFVCRYLFGHIPRRPVGIFGAELGNYLVSHFSSTWDVHHPKNGEMKRMINTTTSLCFASSAEEAGVPPSDVLRLLPTNMIIFANPGHVFVRLSENGIETPIWIGDVNCDENYQSVPEYVVRTAAIRAEPCSNLGAAGKSVLVGKKPLLTNDKAALEMVNTMYSPLAREKCDDINANLSHLREMYPFRFVYKPSSAQTFSGVEFSQTRFGSSKSRPDLQTMDVIKYLSSQQVSSSSSPSFTYSSINDQMRYSPRF	soluble
MAISQFFEKIDRYYQKNLKEYEFSEEYSDISFNTFLYLRKINSLGNPTMSELAKAMEVSKPSASNMVSKMTEKGLVETGASPKDGRVCLLGLTDKGKKVIEIENGADMKFFEKIREILDEEELEVLERIFEKIAAGLEGEKHDR	not soluble
MGSDKIHHHHHHMADGGSERADGRIVKMEVDYSATVDQRLPECAKLAKEGRLQEVIETLLSLEKQTRTASDMVSTSRILVAVVKMCYEAKEWDLLNENIMLLSKRRSQLKQAVAKMVQQCCTYVEEITDLPIKLRLIDTLRMVTEGKIYVEIERARLTKTLATIKEQNGDVKEAASILQELQVETYGSMEKKERVEFILEQMRLCLAVKDYIRTQIISKKINTKFFQEENTEKLKLKYYNLMIQLDQHEGSYLSICKHYRAIYDTPCIQAESEKWQQALKSVVLYVILAPFDNEQSDLVHRISGDKKLEEIPKYKDLLKLFTTMELMRWSTLVEDYGMELRKGSLESPATDVFGSTEEGEKRWKDLKNRVVEHNIRIMAKYYTRITMKRMAQLLDLSVDESEAFLSNLVVNKTIFAKVDRLAGIINFQRPKDPNNLLNDWSQKLNSLMSLVNKTTHLIAKEEMIHNLQ	not soluble
GAMAPATCEKPKFLEYKTCVGDLTVVIAKALDEFKEFCIVNAANEHMTHGSGVAKAIADFCGLDFVEYCEDYVKKHGPQQRLVTPSFVKGIQCVNNVVGPRHGDNNLHEKLVAAYKNVLVDGVVNYVVPVLSLGIFGVDFKMSIDAMREAFEGCTIRVLLFSLSQEHIDYFDVTCK	soluble
MEKKFIAIYDLESDKIEIIDDKFRFKCIEDCGKCCIYNEIPLREEDIQKILSLGYEEEYFVDYTKMFYRGPKFLGYGMKKRPFDDACVFLDPETKKCRIYEHRPVACRIYPFVLVKHEKKLEIYVKEDPRCPGINSPDGEGIVEIIKKYFIPIIEELKGEINGNRRSRQEDFISFNRRLETVVAAALEHHHHHH	not soluble
ASWSHPQFEKGAMALTEAWLIEKANRKLNAGGMYKITSDKTRNVIKKMAKEGIYLCVAQGYRSTAEQNALYAQGRTKPGAIVTNAKGGQSNHNYGVAVDLCLYTNDGKDVIWESTTSRWKKVVAAMKAEGFKWGGDWKSFKDYPHFELCDAVSGEKIPAATQNTNTNSNRYEGKVIDSA	soluble
MGSDKIHHHHHHMFRLAKEELEKLGAMITATEIYQQPGLWKEAHQLYFDQLEKIESFLKSIKEKHDFVHVVFTGAGTSDFVGQSIANYLNQVNDLKHIRFSAIGTVELVSRPHDYLQADLPTILVSFARSGNSPESVAAVEVAKQLVDKLYQVTITCAPEGKLALAAEGDVENLLLLQPAGSNDKGFAMTGSYSCMALTALLVFSPASQEEKAAWVEIIARLGQDVLDREDYVQDLINLDFERVIYLGSGGFYGLAHEAQLKILELTAGKIATMYESPLGFRHGPKSFINEKTLIFLFASNDAYTRQYDVDLLNEVHGDGIAERIVALSADKLVGTEAANFVLAEGGADLPDVFLTFPYILFAQTVSIMAAIKCNNLPDTPSPTGTVNRVVQGVIIHPLEK	not soluble
MKFDVIIIGGSYAGLSAALQLGRARKNILLVDAGERRNRFASHSHGFLGQDGKAPGEIIAEARRQIERYPTIHWVEGRVTDAKGSFGEFIVEIDGGRRETAGRLILAMGVTDELPEIAGLRERWGSAVFHCPYCHGYELDQGKIGVIAASPMAIHHALMLPDWGETTFFTNGIVEPDADQHALLAARGVRVETTRIREIAGHADVVLADGRSIALAGLFTQPKLRITVDWIEKLGCAVEEGPMGSTIVTDPMKQTTARGIFACGDVARPAGSVALAVGDGAMAGAAAHRSILFPEMR	soluble
MGSDKIHHHHHHVPLNSPLQLSLPVHLPDDETFNSYYPAAGNDELIQKLRANAEGQGEAAIYLWGPVKSGRTHLMHAACAHANEVERRSFYIPLGIHASISTALLEGLEQLDLVCIDDVDAIAGHPVWEEAIFDLYNRVAEHKNCALVVSGSSSPADAGFLLPDLVSRMQWGLNYQLQPMADDEKLAALQRRAAMRGLQLPEDVGRFLLNRMARDLRTLFDVLDKLDKASLVHQRKLTIPFAKEMLHL	not soluble
